# Measurements as given in patent publication US20230087785A1, “Leucine-Rich Repeat Kinase 2 Allosteric Modulators” (VIB VZW, priority 2020, published 2023).
# T1: LRRK2 Roc domain construct (human, UniProt Q5S007 1329-1520)
# T1 construct: not shown: N-terminal His6-tag of pET-28a
# T1 sequence: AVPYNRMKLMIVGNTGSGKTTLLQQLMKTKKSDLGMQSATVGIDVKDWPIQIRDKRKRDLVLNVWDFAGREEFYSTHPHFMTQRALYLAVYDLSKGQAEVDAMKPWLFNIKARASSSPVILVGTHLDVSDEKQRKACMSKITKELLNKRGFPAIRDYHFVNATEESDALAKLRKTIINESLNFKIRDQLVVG
# T2: LRRK2 kinase-WD40 domain construct (human, UniProt Q5S007 1876-2527)
# T2 construct: also called K-WD40; not shown: N-terminal His-tag (pFastBac)
# T2 sequence: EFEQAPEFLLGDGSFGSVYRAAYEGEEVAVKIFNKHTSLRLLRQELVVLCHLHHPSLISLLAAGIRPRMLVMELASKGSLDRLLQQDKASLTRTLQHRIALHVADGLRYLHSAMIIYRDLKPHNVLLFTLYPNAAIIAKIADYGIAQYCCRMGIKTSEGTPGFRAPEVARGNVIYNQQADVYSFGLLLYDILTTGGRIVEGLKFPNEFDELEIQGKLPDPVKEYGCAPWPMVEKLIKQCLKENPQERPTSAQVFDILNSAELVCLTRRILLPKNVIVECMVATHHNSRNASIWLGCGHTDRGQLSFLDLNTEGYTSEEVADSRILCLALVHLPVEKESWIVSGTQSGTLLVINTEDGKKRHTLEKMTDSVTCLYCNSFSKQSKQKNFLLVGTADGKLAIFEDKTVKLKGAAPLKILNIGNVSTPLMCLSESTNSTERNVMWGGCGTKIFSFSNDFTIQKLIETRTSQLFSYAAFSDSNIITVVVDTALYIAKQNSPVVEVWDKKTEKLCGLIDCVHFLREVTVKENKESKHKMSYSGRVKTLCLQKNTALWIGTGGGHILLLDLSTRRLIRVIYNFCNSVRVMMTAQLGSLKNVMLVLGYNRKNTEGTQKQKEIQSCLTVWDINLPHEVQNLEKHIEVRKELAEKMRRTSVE
# T3: LRRK2 RocCOR domain construct (human, UniProt Q5S007 1334-1840)
# T3 construct: A second construct (residues 1293-1840, N-terminal His6-MBP) was used in certain screening experiments; not shown: N-terminal Twin-Strep-tag; C-terminal His10-tag
# T3 sequence: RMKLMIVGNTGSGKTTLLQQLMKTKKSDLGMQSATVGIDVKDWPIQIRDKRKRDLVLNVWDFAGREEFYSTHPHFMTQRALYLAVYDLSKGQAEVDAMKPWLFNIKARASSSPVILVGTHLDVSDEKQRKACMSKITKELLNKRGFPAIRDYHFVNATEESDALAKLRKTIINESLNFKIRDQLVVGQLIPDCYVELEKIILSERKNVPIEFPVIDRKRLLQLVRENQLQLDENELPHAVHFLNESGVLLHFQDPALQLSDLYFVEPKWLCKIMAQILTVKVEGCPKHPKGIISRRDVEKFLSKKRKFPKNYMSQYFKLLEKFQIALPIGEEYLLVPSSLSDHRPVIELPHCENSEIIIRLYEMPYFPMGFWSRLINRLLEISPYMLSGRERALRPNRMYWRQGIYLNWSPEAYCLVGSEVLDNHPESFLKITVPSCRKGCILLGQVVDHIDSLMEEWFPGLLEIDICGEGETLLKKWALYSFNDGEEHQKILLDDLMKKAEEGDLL
# Assays:
# [1] = biological target: T1, LRRK2 Roc domain construct; assay: ELISA, antigen coated on the plate, purified Nb detected via its EPEA tag
# Source text: (§1) We recombinantly expressed and purified the RocCOR, Roc, COR-B and kinase-WD40 (K-WD40) domain constructs of LRRK2 (FIG. 7). Subsequently, we performed an ELISA in which all these domain constructs were coated in parallel next to each other in the same ELISA plate, and where we subsequently detected binding of the 42 purified Nbs. […] To enrich in Nbs directed against the Roc domain we specifically included a selection step with either Roc-GTPγS or Roc-GDP.
# [2] = biological target: T2, LRRK2 kinase-WD40 domain construct; assay: as above
# Source text: as §1
# [3] = biological target: T3, LRRK2 RocCOR domain construct; assay: ELISA, purified Nb on coated domain constructs
# Source text: as §1
# [4] = biological target: T1, LRRK2 Roc domain construct; assay: ELISA, purified Nb on coated domain constructs
# Source text: as §1
# [5] = biological target: T4, LRRK2 COR-B construct (C-terminal part of the COR domain), His6-MBP tagged (human, UniProt Q5S007 1672-1840); assay: ELISA, purified Nb on coated domain constructs
# T4 construct: also called (MBP-)COR-B; not shown: N-terminal His6-MBP-tag of pDEST-566
# Source text: as §1
# [6] = biological target: T2, LRRK2 kinase-WD40 domain construct; assay: ELISA, purified Nb on coated domain constructs
# Source text: as §1
# [7] = biological target: T5, Full-length human Leucine-rich repeat kinase 2 (LRRK2), N-terminal Strep/Flag (SF) tagged (human, UniProt Q5S007 1-2527); assay: MST; LRRK2 titrated to m-TAMRA-labelled Nb, 500 µM GDP
# T5 construct: Purified from HEK293T cells in presence of GDP or GTPγS; also called FL LRRK2; FL-LRRK2
# Procedure: Microscale thermophoresis (MST) experiments were performed for determining equilibrium binding affinities (KD) of Nbs binding to FL-LRRK2. Therefore, Nb were site-specifically labelled at their C-terminus with m-TAMRA, using Sortase-mediated peptide exchange. The Nbs were recloned into a pHEN29 vector which is subsequently used to express and purify the Nbs with a C-terminal LPETGG-His₆-EPEA tag. Exchange of the latter peptide with an m-TAMRA-labeled GGGYK peptide (GenicBio, Shanghai, China) was performed using Sortase, and unlabeled Nb and unincorporated peptide were removed using a Ni-NTA and SEC purification step, respectively. […] After incubation at 4° C. for 30 mins, samples were loaded in capillaries and measurements were performed at 25° C. using 50-70% LED power and 80% laser intensity (laser on-time: 30 s, laser off-time: 5 s). All experiments were performed in triplicate.
# [8] = biological target: T5, Full-length human Leucine-rich repeat …; assay: BLI; Nb on LRRK2 trapped on streptavidin sensor via biotinylated Nb40; steady-state fit
# Procedure: To determine the binding affinity (dissociation constant KD) of the ten Nbs for LRRK2, two methods were used in parallel: microscale thermophoresis (MST) and bio-layer interferometry (BLI). For the MST experiment, we site-specifically labeled the ten Nbs with a m-TAM RA fluorophore at its C-terminus, using sortase-mediated coupling, and then titrated increasing amounts of full-length LRRK2 to these Nbs (FIGS. 13A-13E).
# Biolayer interferometry (BLI) measurements were performed using an Octet Red96 (Forte Bio, Inc.) system in a buffer containing 50 mM HEPES pH 8.0, 150 mM NaCl, 10 mM MgCl₂, 5% glycerol, 0.1% BSA, 0.05% Tween, at 25° C. and with shaking speed 1000 rpm. […] The biotinylated Nbs were first loaded on pre-equilibrated SA biosensors at a concentration of 5 μg/mL. This Nb-loaded sensor was then used to trap FL-LRRK2 from a 50 nM LRRK2 solution. […] All experiments were performed in triplicate.
# [9] = biological target: T3, LRRK2 RocCOR domain construct; assay: ELISA, antigen coated on the plate, purified Nb detected via its EPEA tag
# Source text: as §1
# [10] = biological target: T4, LRRK2 COR-B construct (C-terminal part …); assay: as above
# Source text: as §1
# T5 sequence (Q5S007 other isoform, or with tags, fused parts or gaps limits assumed): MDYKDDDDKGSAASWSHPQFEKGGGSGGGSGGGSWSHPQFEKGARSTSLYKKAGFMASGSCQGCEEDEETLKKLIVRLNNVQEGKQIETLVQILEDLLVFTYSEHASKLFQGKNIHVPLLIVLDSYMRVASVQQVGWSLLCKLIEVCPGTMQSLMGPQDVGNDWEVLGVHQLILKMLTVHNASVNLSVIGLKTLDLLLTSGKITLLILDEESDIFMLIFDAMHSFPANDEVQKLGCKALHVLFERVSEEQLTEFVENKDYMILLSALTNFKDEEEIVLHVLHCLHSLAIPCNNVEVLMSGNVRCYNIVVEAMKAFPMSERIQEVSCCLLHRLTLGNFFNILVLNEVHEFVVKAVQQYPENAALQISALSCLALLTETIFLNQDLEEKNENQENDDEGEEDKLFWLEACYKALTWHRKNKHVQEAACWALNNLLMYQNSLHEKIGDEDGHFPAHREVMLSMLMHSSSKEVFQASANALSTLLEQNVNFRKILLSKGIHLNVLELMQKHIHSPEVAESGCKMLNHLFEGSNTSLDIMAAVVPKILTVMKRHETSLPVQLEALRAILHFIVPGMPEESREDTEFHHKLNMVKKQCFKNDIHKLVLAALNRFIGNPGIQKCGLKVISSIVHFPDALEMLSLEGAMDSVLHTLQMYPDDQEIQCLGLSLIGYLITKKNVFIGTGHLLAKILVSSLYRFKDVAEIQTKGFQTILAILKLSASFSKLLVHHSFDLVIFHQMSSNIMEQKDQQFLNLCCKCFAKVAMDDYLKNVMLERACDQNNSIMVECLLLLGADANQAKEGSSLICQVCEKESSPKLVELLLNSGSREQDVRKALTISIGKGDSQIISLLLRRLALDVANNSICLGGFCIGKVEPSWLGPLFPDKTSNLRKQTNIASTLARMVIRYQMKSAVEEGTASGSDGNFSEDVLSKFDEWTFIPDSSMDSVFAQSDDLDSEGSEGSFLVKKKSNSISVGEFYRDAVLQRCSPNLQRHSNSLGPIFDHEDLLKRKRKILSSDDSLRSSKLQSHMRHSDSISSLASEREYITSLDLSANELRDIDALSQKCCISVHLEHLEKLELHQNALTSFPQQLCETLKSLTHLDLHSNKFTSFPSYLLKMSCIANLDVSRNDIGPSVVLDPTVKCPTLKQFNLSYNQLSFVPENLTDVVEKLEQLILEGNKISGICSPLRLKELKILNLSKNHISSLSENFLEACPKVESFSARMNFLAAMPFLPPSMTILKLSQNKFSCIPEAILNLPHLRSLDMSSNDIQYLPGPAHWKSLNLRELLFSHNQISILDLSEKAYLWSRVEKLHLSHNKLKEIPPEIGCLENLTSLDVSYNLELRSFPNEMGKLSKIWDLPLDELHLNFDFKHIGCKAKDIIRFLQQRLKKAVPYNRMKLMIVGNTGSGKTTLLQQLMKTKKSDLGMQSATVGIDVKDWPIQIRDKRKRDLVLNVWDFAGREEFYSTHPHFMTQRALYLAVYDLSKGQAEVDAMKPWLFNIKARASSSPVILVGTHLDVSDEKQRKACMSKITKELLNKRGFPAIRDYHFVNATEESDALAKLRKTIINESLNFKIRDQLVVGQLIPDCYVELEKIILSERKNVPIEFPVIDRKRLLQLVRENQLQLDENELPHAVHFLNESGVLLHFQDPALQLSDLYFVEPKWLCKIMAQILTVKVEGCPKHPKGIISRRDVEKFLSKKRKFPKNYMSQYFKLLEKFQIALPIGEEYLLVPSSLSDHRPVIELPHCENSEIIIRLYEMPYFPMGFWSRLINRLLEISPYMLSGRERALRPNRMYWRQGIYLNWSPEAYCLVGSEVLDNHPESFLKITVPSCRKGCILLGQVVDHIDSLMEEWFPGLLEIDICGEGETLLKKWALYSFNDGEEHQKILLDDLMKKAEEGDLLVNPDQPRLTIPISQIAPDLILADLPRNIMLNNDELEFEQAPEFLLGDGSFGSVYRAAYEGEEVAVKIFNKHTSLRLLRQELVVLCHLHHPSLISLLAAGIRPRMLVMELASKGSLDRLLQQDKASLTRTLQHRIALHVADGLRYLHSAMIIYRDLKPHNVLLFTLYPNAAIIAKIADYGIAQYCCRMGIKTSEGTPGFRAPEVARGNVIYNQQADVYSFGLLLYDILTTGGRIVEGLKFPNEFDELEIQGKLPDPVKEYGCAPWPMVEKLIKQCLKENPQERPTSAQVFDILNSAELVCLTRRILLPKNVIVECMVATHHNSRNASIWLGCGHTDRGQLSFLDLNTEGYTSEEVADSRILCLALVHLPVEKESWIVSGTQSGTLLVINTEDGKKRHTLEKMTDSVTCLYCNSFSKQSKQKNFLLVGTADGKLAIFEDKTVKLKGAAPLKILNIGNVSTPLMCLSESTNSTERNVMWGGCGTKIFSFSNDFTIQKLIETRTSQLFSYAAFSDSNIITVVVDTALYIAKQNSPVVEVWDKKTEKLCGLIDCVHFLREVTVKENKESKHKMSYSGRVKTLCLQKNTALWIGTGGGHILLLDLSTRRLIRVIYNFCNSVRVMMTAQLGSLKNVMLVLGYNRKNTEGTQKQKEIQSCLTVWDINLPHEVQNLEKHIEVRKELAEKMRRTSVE
binding result [1],binding result [2],binding result [3],binding result [4],binding result [5],binding result [6],Kd [7],Kd [8],binding result [9],binding result [10],Binder
no binding (tested: not given),no binding (tested: not given),–,–,–,–,–,–,–,–,Nb3 (CA12614) (VHH) VHH: QVQLVESGGGLVQPGGSLRLSCAASGSIFRRNAMGWYRQVTGKERELVAGITSGGYTNYRDFVKGRFTISRDNAKNTVYLQMNNLKPEDTAVYYCNLLSEMLQTVWGQGTQVTVSS
–,–,no binding,no binding,no binding,no binding,–,–,–,–,Nb37 (CA14131) (VHH) VHH: QVQLVESGGGLVQPGGSLRLSCAASGSVFSTNTMAWFRQAPGKQREWVGGITPGGFTNYINSVKGRFTISRDNANNTIYLQMSSLRPEDTAVYYCNTLSRMALWGQGTQVTVSS
–,–,no binding,no binding,no binding,no binding,67 nM,11 nM,–,–,Nb17 (CA13606) (VHH) VHH: QVQLVESGGGLVQPGGSLRLSCAASGSNIGYMAWYRQAPGSQRELVARIASGGSANYADSVKGRFTISRDNVKNTVYLHMNSLKPVDTAVYYCHADAWYNSRWSDYWGQGTQVTVSS
–,–,no binding,no binding,no binding,no binding,79 nM,21 nM,–,–,Nb39 (CA14134) (VHH) VHH: QVQLVESGGGLVQAGGSLRLSCRASGGTFSTYAMGWFRQVPGKERETVAAVKWSGDMTYYADSVKGRFTISRDNAKNTVYLQMNSLRPEDTAVYYCAARRGLSYYRGPSEYDYWGQGTQVTVSS
–,no binding (tested: not given),–,–,–,–,–,–,no binding (tested: not given),no binding (tested: not given),Nb35 (CA16072) (VHH) VHH: QVQLVESGGGLVQPGGSLRLSCAASGFPFSTYYMSWVRQAPGKGLEWVSAISPGGDTAYADSVKDRFTISRDSAKNTVYLQMSSLKPEDTAVYYCAAVRFLRAPDLTEKRLYEYWGQGTQVTVSS
–,–,no binding,no binding,no binding,no binding,78 nM,51 nM,–,–,Nb36 (CA14130) (VHH) VHH: QVQLVESGGGLVQPGGSLRLSCAASGSIRSITTSAWFRQPPGKQRELVAGISSGTSTNYADSVKGRFTISRDNAKNTVYLQMNSLKPEDTAVYYCHVWISGTWYSGQGTQVTVSS
–,–,no binding,no binding,no binding,no binding,48 nM,86 nM,–,–,Nb38 (CA14133) (VHH) VHH: QVQLVESGGGLVQPGGSLRLSCAASGSIRSIATSAWYRQPPGKQRELVAGISSGTTTNYADSVKGRFTISRDNAKNTVYLQMNSLKPEDTAVYYCHAWISGTWISGQGTQVTVSS
no binding (tested: not given),–,–,–,–,–,145 nM,76 nM,no binding (tested: not given),no binding (tested: not given),Nb22 (CA13611) (VHH) VHH: QVQLVESGGGLVQAGGSLRLSCAASGRTFSSYTMGWFRQAPGKEREFVAAIRWSGGSTYYADSVKGRFTISRDNAKNTVYLQMNSLKPEDTAVYYCAASDRGGFIATSGGWMDYWGKGTQVTVSS
